Assay results taken from publication PMC9482650, “Quantitative fragmentomics allow affinity mapping of interactomes” (Nature Communications, 2022).

T1: APBA1_1, Q02410
T1 sequence (Q02410 651-752, limits assumed, looked up): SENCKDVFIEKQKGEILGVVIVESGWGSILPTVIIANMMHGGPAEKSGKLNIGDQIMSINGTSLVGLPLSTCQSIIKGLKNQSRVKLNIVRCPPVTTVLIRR

T2: APBA2_1, Q99767
T2 sequence (Q99767 563-664, limits assumed, looked up): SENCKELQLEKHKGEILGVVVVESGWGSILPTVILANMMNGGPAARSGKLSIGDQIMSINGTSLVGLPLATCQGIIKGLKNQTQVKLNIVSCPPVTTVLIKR

T3: APBA2_2, Q99767
T3 sequence (Q99767 654-744, limits assumed, looked up): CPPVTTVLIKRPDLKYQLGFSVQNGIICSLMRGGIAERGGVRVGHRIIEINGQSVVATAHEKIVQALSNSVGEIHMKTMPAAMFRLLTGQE

T4: ARHGEF11, O15085
T4 sequence (O15085 42-136, limits assumed, looked up): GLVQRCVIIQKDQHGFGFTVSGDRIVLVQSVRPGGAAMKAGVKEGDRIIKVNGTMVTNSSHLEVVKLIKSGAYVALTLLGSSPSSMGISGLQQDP

T5: DFNB31_1, Q9P202
T5 sequence (Q9P202 135-233, limits assumed, looked up): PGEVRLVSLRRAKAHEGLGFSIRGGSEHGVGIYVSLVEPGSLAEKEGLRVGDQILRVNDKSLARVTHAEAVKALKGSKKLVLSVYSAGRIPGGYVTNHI

T6: DLG3_3, Q92796
T6 sequence (Q92796 374-475, limits assumed, looked up): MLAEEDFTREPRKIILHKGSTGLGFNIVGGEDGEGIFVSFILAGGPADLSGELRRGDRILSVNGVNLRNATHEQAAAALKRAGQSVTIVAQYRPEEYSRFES

T7: GRIP1_2, Q9Y3R0
T7 sequence (Q9Y3R0 145-248, limits assumed, looked up): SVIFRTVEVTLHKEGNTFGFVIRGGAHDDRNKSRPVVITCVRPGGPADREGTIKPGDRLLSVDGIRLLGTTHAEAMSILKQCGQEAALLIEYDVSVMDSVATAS

T8: GRIP1_5, Q9Y3R0
T8 sequence (Q9Y3R0 568-668, limits assumed, looked up): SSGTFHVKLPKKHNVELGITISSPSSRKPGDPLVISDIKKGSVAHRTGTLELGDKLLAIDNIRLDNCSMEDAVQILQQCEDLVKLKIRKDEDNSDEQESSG

T9: MPDZ_5, O75970
T9 sequence (O75970 695-796, limits assumed, looked up): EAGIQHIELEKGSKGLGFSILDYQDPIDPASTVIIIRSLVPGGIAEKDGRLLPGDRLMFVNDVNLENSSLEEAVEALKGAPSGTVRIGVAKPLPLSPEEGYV

T10: MPP2, Q14168
T10 sequence (Q14168 180-250, limits assumed, looked up): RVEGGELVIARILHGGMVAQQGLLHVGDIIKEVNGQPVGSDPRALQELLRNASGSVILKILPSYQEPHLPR

T11: NHERF3_3, Q5T2W1
T11 sequence (Q5T2W1 238-333, limits assumed, looked up): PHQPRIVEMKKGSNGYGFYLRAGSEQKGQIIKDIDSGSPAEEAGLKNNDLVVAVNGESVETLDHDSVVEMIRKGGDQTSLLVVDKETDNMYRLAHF

T12: SNTB1, Q13884
T12 sequence (Q13884 107-205, limits assumed, looked up): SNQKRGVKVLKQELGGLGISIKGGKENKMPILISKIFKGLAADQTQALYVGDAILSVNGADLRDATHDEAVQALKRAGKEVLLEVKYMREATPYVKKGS


Legend:
Experiment in all cases: holdup assay
Set-up in all cases: key: below the threshold = too weak to quantify, mostly under pKd 3.1 to 4
Details in all cases: plain residues with an end cap or a label only (N-terminal biotin on a linker: ado-ado)
APBA1_1, Q02410 = target: T1, APBA1_1, Q02410
APBA2_1, Q99767 = target: T2, APBA2_1, Q99767
APBA2_2, Q99767 = target: T3, APBA2_2, Q99767
ARHGEF11, O15085 = target: T4, ARHGEF11, O15085
CASK, O14936 = target: CASK, O14936
Chain of CASK, O14936 (O14936 487-570): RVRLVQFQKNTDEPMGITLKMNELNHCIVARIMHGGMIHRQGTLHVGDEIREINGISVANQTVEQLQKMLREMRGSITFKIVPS

DFNB31_1, Q9P202 = target: T5, DFNB31_1, Q9P202
DLG1_2, Q12959 = target: DLG1_2, Q12959
Chain of DLG1_2, Q12959 (Q12959 314-412): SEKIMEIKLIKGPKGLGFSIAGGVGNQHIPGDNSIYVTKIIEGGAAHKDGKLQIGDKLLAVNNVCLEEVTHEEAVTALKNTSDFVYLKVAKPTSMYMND

DLG1_3, Q12959 = target: DLG1_3, Q12959
Chain of DLG1_3, Q12959 (Q12959 457-571): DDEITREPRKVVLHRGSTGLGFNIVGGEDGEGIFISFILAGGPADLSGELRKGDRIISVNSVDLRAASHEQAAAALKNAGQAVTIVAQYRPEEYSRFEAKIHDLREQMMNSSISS

DLG3_3, Q92796 = target: T6, DLG3_3, Q92796
DLG4_1, P78352 = target: DLG4_1, P78352
Chain of DLG4_1, P78352 (P78352 62-152): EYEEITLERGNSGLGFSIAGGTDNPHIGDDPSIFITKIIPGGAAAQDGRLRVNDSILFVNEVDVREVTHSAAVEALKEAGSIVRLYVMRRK

FRMPD4, Q14CM0 = target: FRMPD4, Q14CM0
Chain of FRMPD4, Q14CM0 (Q14CM0 67-160): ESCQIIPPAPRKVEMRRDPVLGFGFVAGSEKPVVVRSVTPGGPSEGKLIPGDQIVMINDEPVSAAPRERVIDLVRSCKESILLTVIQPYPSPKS

GOPC, Q9HD26 = target: GOPC, Q9HD26
GORASP2, Q9H8Y8 = target: GORASP2, Q9H8Y8
GRID2IP_2, A4D2P6 = target: GRID2IP_2, A4D2P6
Chain of GRID2IP_2, A4D2P6 (A4D2P6 272-370): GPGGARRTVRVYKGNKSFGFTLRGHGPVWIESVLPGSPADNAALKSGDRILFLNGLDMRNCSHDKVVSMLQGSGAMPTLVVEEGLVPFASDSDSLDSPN

GRIP1_2, Q9Y3R0 = target: T7, GRIP1_2, Q9Y3R0
GRIP1_5, Q9Y3R0 = target: T8, GRIP1_5, Q9Y3R0
IL16_1, Q14005 = target: IL16_1, Q14005
Chain of IL16_1, Q14005 (Q14005 210-306): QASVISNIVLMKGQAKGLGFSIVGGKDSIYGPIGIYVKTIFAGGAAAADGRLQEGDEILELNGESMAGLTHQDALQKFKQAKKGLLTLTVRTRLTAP

IL16_3, Q14005 = target: IL16_3, Q14005
Chain of IL16_3, Q14005 (Q14005 1107-1207): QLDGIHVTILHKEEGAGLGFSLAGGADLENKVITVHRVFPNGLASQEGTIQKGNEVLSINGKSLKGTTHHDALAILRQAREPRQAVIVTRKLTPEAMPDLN

LNX1_1, Q8TBB1 = target: LNX1_1, Q8TBB1
Chain of LNX1_1, Q8TBB1 (Q8TBB1 261-371): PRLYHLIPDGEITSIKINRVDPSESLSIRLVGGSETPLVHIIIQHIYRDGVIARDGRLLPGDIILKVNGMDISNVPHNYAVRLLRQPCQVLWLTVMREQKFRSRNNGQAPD

LNX1_2, Q8TBB1 = target: LNX1_2, Q8TBB1
Chain of LNX1_2, Q8TBB1 (Q8TBB1 371-470): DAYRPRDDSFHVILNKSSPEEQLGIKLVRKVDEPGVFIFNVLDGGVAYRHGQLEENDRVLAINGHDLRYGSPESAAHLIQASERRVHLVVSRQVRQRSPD

MPDZ_5, O75970 = target: T9, MPDZ_5, O75970
MPP2, Q14168 = target: T10, MPP2, Q14168
NHERF3_3, Q5T2W1 = target: T11, NHERF3_3, Q5T2W1
NHERF4_4, Q86UT5 = target: NHERF4_4, Q86UT5
Chain of NHERF4_4, Q86UT5 (Q86UT5 464-550): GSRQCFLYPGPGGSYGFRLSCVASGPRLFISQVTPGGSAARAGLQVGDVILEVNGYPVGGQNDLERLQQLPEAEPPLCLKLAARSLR

SNTB1, Q13884 = target: T12, SNTB1, Q13884
TJP1_3, Q07157 = target: TJP1_3, Q07157
Chain of TJP1_3, Q07157 (Q07157 416-512): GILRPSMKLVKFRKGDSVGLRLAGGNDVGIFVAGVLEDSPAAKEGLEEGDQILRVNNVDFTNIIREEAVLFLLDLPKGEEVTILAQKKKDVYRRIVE

Binder | pKd (APBA1_1, Q02410) | pKd (APBA2_1, Q99767) | pKd (APBA2_2, Q99767) | pKd (ARHGEF11, O15085) | pKd (CASK, O14936) | pKd (DFNB31_1, Q9P202) | pKd (DLG1_2, Q12959) | pKd (DLG1_3, Q12959) | pKd (DLG3_3, Q92796) | pKd (DLG4_1, P78352) | pKd (FRMPD4, Q14CM0) | pKd (GOPC, Q9HD26) | pKd (GORASP2, Q9H8Y8) | pKd (GRID2IP_2, A4D2P6) | pKd (GRIP1_2, Q9Y3R0) | pKd (GRIP1_5, Q9Y3R0) | pKd (IL16_1, Q14005) | pKd (IL16_3, Q14005) | pKd (LNX1_1, Q8TBB1) | pKd (LNX1_2, Q8TBB1) | further results
RQSILFSTEV [BCR, P11274] | below the threshold | below the threshold | below the threshold | 5.19 | below the threshold | 4.27 | 4.85 | 4.06 | 3.86 | 4.67 | below the threshold | 4.5 | 3.82 | 4.3 | below the threshold | below the threshold | 3.85 | below the threshold | 4.85 | 3.74 | pKd (MPDZ_5, O75970): below the threshold; pKd (MPP2, Q14168): below the threshold; pKd (NHERF3_3, Q5T2W1): below the threshold; pKd (NHERF4_4, Q86UT5): below the threshold; pKd (SNTB1, Q13884): 4.46; pKd (TJP1_3, Q07157): below the threshold
SMLNRRTTPV [CACNG4, Q9UBN1] | below the threshold | below the threshold | below the threshold | 3.89 | below the threshold | 4 | 4.98 | 4.39 | 4.77 | 4.51 | below the threshold | below the threshold | below the threshold | 3.92 | below the threshold | below the threshold | below the threshold | below the threshold | below the threshold | 3.75 | pKd (MPDZ_5, O75970): below the threshold; pKd (MPP2, Q14168): below the threshold; pKd (NHERF3_3, Q5T2W1): below the threshold; pKd (NHERF4_4, Q86UT5): below the threshold; pKd (SNTB1, Q13884): 4.07; pKd (TJP1_3, Q07157): below the threshold

Further lines, with some results ahead:

pKd (APBA1_1, Q02410) | pKd (APBA2_1, Q99767) | pKd (APBA2_2, Q99767) | pKd (ARHGEF11, O15085) | pKd (CASK, O14936) | pKd (DFNB31_1, Q9P202) | pKd (DLG1_2, Q12959) | pKd (DLG1_3, Q12959) | pKd (DLG3_3, Q92796) | pKd (DLG4_1, P78352) | pKd (FRMPD4, Q14CM0) | pKd (GOPC, Q9HD26) | pKd (GORASP2, Q9H8Y8) | pKd (GRID2IP_2, A4D2P6) | pKd (GRIP1_2, Q9Y3R0) | pKd (GRIP1_5, Q9Y3R0) | pKd (IL16_1, Q14005) | pKd (IL16_3, Q14005) | pKd (LNX1_1, Q8TBB1) | pKd (LNX1_2, Q8TBB1) | Binder | further results
below the threshold | below the threshold | below the threshold | 3.94 | below the threshold | 3.6 | 4.04 | below the threshold | below the threshold | 3.79 | 3.85 | 3.74 | below the threshold | 3.91 | below the threshold | below the threshold | 3.9 | below the threshold | below the threshold | below the threshold | PELESKESVL [SLC1A4, P43007] | pKd (MPDZ_5, O75970): below the threshold; pKd (MPP2, Q14168): below the threshold; pKd (NHERF3_3, Q5T2W1): below the threshold; pKd (NHERF4_4, Q86UT5): below the threshold; pKd (SNTB1, Q13884): 4.8; pKd (TJP1_3, Q07157): below the threshold
below the threshold | below the threshold | below the threshold | below the threshold | below the threshold | below the threshold | below the threshold | below the threshold | below the threshold | below the threshold | below the threshold | below the threshold | below the threshold | below the threshold | below the threshold | below the threshold | below the threshold | below the threshold | below the threshold | below the threshold | LSEFKAMDSF [CTNNA2, P26232] | pKd (MPDZ_5, O75970): below the threshold; pKd (MPP2, Q14168): below the threshold; pKd (NHERF3_3, Q5T2W1): below the threshold; pKd (NHERF4_4, Q86UT5): below the threshold; pKd (SNTB1, Q13884): below the threshold; pKd (TJP1_3, Q07157): below the threshold
below the threshold | below the threshold | 3.56 | 3.56 | below the threshold | below the threshold | below the threshold | 3.77 | below the threshold | below the threshold | 3.7 | below the threshold | below the threshold | below the threshold | below the threshold | below the threshold | below the threshold | below the threshold | 3.87 | below the threshold | EEDTAEKDEL [HSPA5, P11021] | pKd (MPDZ_5, O75970): below the threshold; pKd (MPP2, Q14168): below the threshold; pKd (NHERF3_3, Q5T2W1): below the threshold; pKd (NHERF4_4, Q86UT5): below the threshold; pKd (SNTB1, Q13884): below the threshold; pKd (TJP1_3, Q07157): below the threshold
